This assay concerns transgenic rice plants. Briefly: glyphosate resistance of the EPSPS mutant in transgenic rice plants sprayed with Roundup 41% ammonium glyphosate. It counts as in vivo, rice (Nipponbare). The source says: A method for detecting the glyphosate resistance of G1 (SEQ ID NO: 4) provided in Example 1, G3 (SEQ ID NO: 8) provided in Example 2, G4 (SEQ ID NO: 10) provided in Example 3, the soybean EPSPS mutant G5 (SEQ ID NO: 12) provided in Example 4, T1 (SEQ ID NO: 16) provided in Example 5, T3 (SEQ ID NO: 20) provided in Example 6, T4 (SEQ ID NO: 22) provided in Example 7, T5 (SEQ ID NO: 24) provided in Example 8, the wheat EPSPS mutant T6 (SEQ ID NO: 26) provided in Example 9, R1 (SEQ ID NO: 30) provided in Example 10, R3 (SEQ ID NO: 34) provided in Example 11, R4 (SEQ ID NO: 36) provided in Example 12, R5 (SEQ ID NO: 38) provided in Example 13, and the rice EPSPS mutant R6 (SEQ ID NO: 40) provided in Example 14 in the transgenic rice is as follows:
The plasmids (containing the EPSPS mutation gene) of the monoclonal resistant bacteria of pADV5-EPSPS in Examples 1-7 were extracted by a conventional method, followed by double enzyme digestion by Pac1 and BstEII, the small fragments were collected, and then the small fragments were ligated by using T4 DNA ligase, to the pGVP1 vectors that had undergone the same double enzyme digestion, to obtain a pGVP1-EPSPS vector having a structure as shown in FIG. 23.
EHA105 (Agrobacterium tumefaciens) competent cells were transformed by the pGVP1-EPSPS vector, and single colonies were picked up to perform bacterial colony PCR detection to identify positive strains; then the positive strains were inoculated into 1 mL of YEP culture medium containing 50 μg·mL^−1 kanamycin and 50 μg·mL^−1 rifampin to propagate, and then preserved at −80° C., or used for subsequent experiment.
400 μl of bacterium containing the target gene vector preserved at −80° C. was added to a culture dish of solid culture media containing YEP+50 μg/mL rifampin+50 μg/mL kanamycin, and cultured in the dark at 28° C. for 24 hours, then this bacterium was added to an infection culture medium, and this bacterial solution was adjusted to OD=0.2 as an infection liquid.
Sterilization and pre-culturing: mature rice (Nipponbare) seeds were manually shelled, and full seeds without bacterial plaque were selected, and sterilized according to following steps: putting the seeds into a 50 ml sterile centrifuge tube, adding 70% alcohol for disinfection for 30 seconds, pouring out the alcohol, and cleaning the seeds once with sterile water; adding 10-20 ml of 2.6% sodium hypochlorite solution for soaking and sterilizing for 20 minutes, pouring out the sodium hypochlorite solution, and soaking and cleaning the seeds with sterile water for 6-7 times, 3 minutes each time.
Induction and subculturing: the seeds were put on sterile filter paper for drying, and mature embryos were put in an induction culture medium with 12 embryos in each dish; the culture dishes were sealed with a sealing film after the operation was finished, the mature embryos were cultured in the dark at 30° C. for 21-28 days, calluses were transferred into a fresh culture medium, and continuously cultured for about 7-14 days, and spherical calluses with a size of 1-2 mm were taken as infection receptors.
the calluses were inoculated into a centrifuge tube or a culture cup, the prepared Agrobacterium tumefaciens suspension liquid was added for infection for 10 minutes, wherein the calluses were shaken several times; the bacterial solution was poured out, the calluses were taken out, and placed on sterile filter paper to suck out the surface bacterial solution (about 30 minutes); and the calluses were put on sterile filter paper in a culture dish, and cultured in the dark at 25° C. for 2-3 days.
Recovery culturing: the calluses having undergone co-culturing were inoculated in a recovery culture medium, and cultured in the dark at 30° C. for 5-7 days. First round of screening: the calluses were transferred to screening culture media 1 (S1) and cultured in the dark at 30° C. for 14 days. […]

The mark [1] stands for this setting: 1× dosage 1060 g/hectare glyphosate sprayed, recorded on 10th day.
The mark [2] stands for this setting: 2× dosage 2120 g/hectare sprayed to plants surviving 1×, recorded 10 days later.
Setting [3] is: 5× dosage 5300 g/hectare sprayed to plants surviving 2×, recorded 10 days later.
[4] abbreviates: 20× dosage 21200 g/hectare sprayed to plants surviving 5×, recorded 10 days later.

B1: T0: wild-type wheat EPSPS, amino acid sequence SEQ ID NO: 14; control (protein, listed as Triticum aestivum)
chain: MATSVAAPAAPAGAEEVVLQPIREISGAVQLPGSKSLSNRILLLSALSEGTTVVDNLLNSEDVHYMLEALEALGLSVEADKVAKRAVVVGCGGRFPVEKDAKEEVKLFLGNAGTAMRPLTAAVVAAGGNATYVLDGVPRMRERPIGDLVVGLQQLGADVDCFLGTNCPPVRINGKGGLPGGKVKLSGSISSQYLSSLLMAAPLALEDVEIEIIDKLISVPYVEMTLKLMEHFGVTAEHSDSWDRFYIKGGQKYKSPGNAYVEGDASSASYFLAGAAITGGTVTVEGCGTTSLQGDVKFAEVLEMMGAKVTWTDTSVTVTGPPRQPFGRKHLKAVDVNMNKMPDVAMTLAVVALFADGPTAIRDVASWRVKETERMVAIRTELTKLGATVEEGPDYCIITPPEKLNITAIDTYDDHRMAMAFSLAACAEVPVTIRDPGCTRKTFPNYFDVLSTFVKN
On to B1, for which, under setting [1], the “%++&+++ (percentage of plant having medium and high glyphosate resistance to the total number of plants observed)” value worked out at 0.0%; the “number of plants denoted by + (low glyphosate resistance)” value (from here on “number … (low glyphosate resistance)”) worked out at 1; the “number of plants denoted by ++ (medium glyphosate resistance)” value (“number … (medium glyphosate resistance)” for short) was 0; the “number of plants denoted by +++ (high glyphosate resistance)” value (“number of plants denoted by +++” for short) is recorded as 0. In addition, the “number of plants denoted by − (no glyphosate resistance)” value (“number … (no glyphosate resistance)” below) under setting [1] is listed as 32. The “glyphosate resistance / survival of the rice transformed by the EPSPS, in words” value (shortened to “glyphosate resistance / survival”) (1× glyphosate dosage) is “had no resistance, one was seriously damaged, and all the others died”. Moreover, under setting [2], the “%++&+++ (percentage of plant having medium and high glyphosate resistance to the total number of plants observed)” value is 0.0%; the “number … (low glyphosate resistance)” value stood at 0; the “number … (medium glyphosate resistance)” value amounted to 0; the “number of plants denoted by +++” value is on record as 0. For the same molecule, the “number … (no glyphosate resistance)” value under setting [2] amounted to 33. Further, under setting [3], the “&++&+++ (percentage of plant having medium and high glyphosate resistance to the total number of plants observed)” value stood at 0.0%; the “number … (low glyphosate resistance)” value was determined as 0; the “number … (medium glyphosate resistance)” value is 0; the “number of plants denoted by +++” value is 0. Moreover, the “number … (no glyphosate resistance)” value under setting [3] was determined as 33. Also, under setting [4], the “&++&+++ (percentage of plant having medium and high glyphosate resistance to the total number of plants observed)” value came out at 0.0%; the “number … (low glyphosate resistance)” value was determined as 0; the “number … (medium glyphosate resistance)” value was 0; the “number of plants denoted by +++” value was determined as 0. Besides, the “number … (no glyphosate resistance)” value under setting [4] is on record as 33.

B2: T1: wheat EPSPS mutant, SEQ ID NO: 16, mutation S269(247)G (protein)
chain: MATSVAAPAAPAGAEEVVLQPIREISGAVQLPGSKSLSNRILLLSALSEGTTVVDNLLNSEDVHYMLEALEALGLSVEADKVAKRAVVVGCGGRFPVEKDAKEEVKLFLGNAGTAMRPLTAAVVAAGGNATYVLDGVPRMRERPIGDLVVGLQQLGADVDCFLGTNCPPVRINGKGGLPGGKVKLSGSISSQYLSSLLMAAPLALEDVEIEIIDKLISVPYVEMTLKLMEHFGVTAEHSDSWDRFYIKGGQKYKSPGNAYVEGDASSAGYFLAGAAITGGTVTVEGCGTTSLQGDVKFAEVLEMMGAKVTWTDTSVTVTGPPRQPFGRKHLKAVDVNMNKMPDVAMTLAVVALFADGPTAIRDVASWRVKETERMVAIRTELTKLGATVEEGPDYCIITPPEKLNITAIDTYDDHRMAMAFSLAACAEVPVTIRDPGCTRKTFPNYFDVLSTFVKN
Turning to B2, under setting [1], the “%++&+++ (percentage of plant having medium and high glyphosate resistance to the total number of plants observed)” value came to 27.0%; the “number … (low glyphosate resistance)” value was 28; the “number … (medium glyphosate resistance)” value stood at 15; the “number of plants denoted by +++” value was 2. Further, the “number … (no glyphosate resistance)” value under setting [1] is on record as 18. Moreover, the “glyphosate resistance / survival” value (1× glyphosate dosage) is listed as “obviously superior to that of the rice seedlings transformed by T0”. Moreover, under setting [2], the “%++&+++ (percentage of plant having medium and high glyphosate resistance to the total number of plants observed)” value was found to be 1.6%; the “number … (low glyphosate resistance)” value was 32; the “number … (medium glyphosate resistance)” value is 1; the “number of plants denoted by +++” value is 0. For the same molecule, the “number … (no glyphosate resistance)” value under setting [2] turned out to be 30. Moreover, where the note is “2× glyphosate dosage”, the “glyphosate resistance / survival” value was “some of the transgenic rice seedlings transformed by T4, T1 and T5 still survived”. Under setting [3], the “&++&+++ (percentage of plant having medium and high glyphosate resistance to the total number of plants observed)” value worked out at 0.0%; the “number … (low glyphosate resistance)” value was 2; the “number … (medium glyphosate resistance)” value was determined as 0; the “number of plants denoted by +++” value is 0. Also, under setting [3], the “number … (no glyphosate resistance)” value is recorded as 61. The “glyphosate resistance / survival” value (5× glyphosate dosage) is “some of the transgenic rice seedlings transformed by T4, T1 and T5 still survived”. Moreover, under setting [4], the “&++&+++ (percentage of plant having medium and high glyphosate resistance to the total number of plants observed)” value amounted to 0.0%; the “number … (low glyphosate resistance)” value stood at 0; the “number … (medium glyphosate resistance)” value worked out at 0; the “number of plants denoted by +++” value is recorded as 0. Further, the “number … (no glyphosate resistance)” value under setting [4] came to 63.

The values above are taken from US11584938B2, “Plant EPSPS mutant containing L195P and S247G mutations and encoding gene and use thereof” (GEVOTO LLC, priority 2017, dated 2023).
